Biological target: T1, β-casein (Sigma, St Louis, Mo.), P02666
T1 chain: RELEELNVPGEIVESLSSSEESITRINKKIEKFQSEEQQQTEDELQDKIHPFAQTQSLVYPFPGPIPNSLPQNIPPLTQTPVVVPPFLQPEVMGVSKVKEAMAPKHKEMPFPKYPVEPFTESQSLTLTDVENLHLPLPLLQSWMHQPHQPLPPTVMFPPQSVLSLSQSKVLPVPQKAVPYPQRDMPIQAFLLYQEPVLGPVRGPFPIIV

B1: PRSS11-L CDS-HAHIS (recombinant human PRSS11-L protease with a C-terminal HA6HIS epitope/affinity tag, expressed in baculovirus-infected Sf9 cells) (protein)
chain: MHLALPASAGLHQLSSPRYKFNFIADVVEKIAPAVVHIELFLRHPLFGRNVPLSSGSGFIMSEAGLIITNAHVVSSNSAAPGRQQLKVQLQNGDSYEATIKDIDKKSDIATIKIHPKKKLPVLLLGHSADLRPGEFVVAIGSPFALQNTVTTGIVSTAQREGRELGLRDSDMDYIQTDAIINYGNSGGPLVNLDGEVIGINTLKVTAGISFAIPSDRITRFLTEFQDKQIKDWKKRFIGIRMRTITPSLVDELKASNPDFPEVSSGIYVQEVAPNSPSQRGGIQDGDIIVKVNGRPLVDSSELQEAVLTESPLLLEVRRGNDDLLFSIAPEVVM
- cleavage of β-casein, SDS-PAGE with Coomassie Brilliant Blue staining: The proteolytic activity of PRSS11-L was further confirmed by its cleavage of casein.
